System: engineered chimeric receptor SEQ ID NO: 33 and its mutants (human α7-nAChR ligand binding domain / human GlyRα1 ion pore domain) in Lenti-X 293T cells
Assay: YFP fluorescence quenching anion reporter plate reader assay (percent quench, EC50)
Format: cell-based
Settings: for YFP fluorescence quenching using CNL001 (percent quench): receptor named in row
How it was run: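 Percent quench compares mean YFP signal over the final 10 s with the 15 s baseline before ligand, added in iodide-containing extracellular solution (pH 7.2). Cells were LX293T carrying a YFP anion reporter, transiently transfected with the channel construct; plates were preincubated 30 min at 37 °C.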

B1: CODA806: engineered receptor: Y115D, L131Q in SEQ ID NO: 33 (Chemogenic receptor-11) (protein)
chain: MRCSPGGVWLALAASLLHVSLQGEFQRKLYKELVKNYNPLERPVANDSQPLTVYFSLSLLQIMDVDEKNQVLTTNIWLQMSWTDHYLQWNVSEYPGVKTVRFPDGQIWKPDILLDNSADERFDATFHTNVQVNSSGHCQYLPPGIFKSSCPMDLKNFPMDVQTCKLKFGSWSYGGWSLDLQMQEADISGYIPNGEWDLVGIPGKRSERFYECCKEPYPDVTFTVTMRRRMGYYLIQMYIPSLLIVILSWISFWINMDAAPARVGLGITTVLTMTTQSSGSRASLPKVSYVKAIDIWMAVCLLFVFSALLEYAAVNFVSRQHKELLRFRRKRRHHKSPMLNLFQEDEAGEGRFNFSAYGMGPACLQAKDGISVKGANNSNTTNPPPAPSKSPEEMRKLFIQRAKKIDKISRIGFPMAFLIFNMFYWIIYKIVRREDVHNQ
modifications: synthetic sequence of chimeric LGIC
B1 was tested, and the “YFP fluorescence quenching using CNL001 (percent quench)” value (1 nM CNL001, first column so headed) was 6.587%, the “YFP fluorescence quenching using CNL001 (percent quench)” value (1 nM CNL001, second column so headed) was −5.179% and the “YFP fluorescence quenching using TC-5619/Bradanicline (percent quench)” value (1 nM brd (TC-5619/Bradanicline)) was 0.92%. The “YFP fluorescence quenching using TC-5619/Bradanicline (percent quench)” value (3 nM brd (TC-5619/Bradanicline)) was −4.65%, the “YFP fluorescence quenching using CNL001 (percent quench)” value (10 nM CNL001, first column so headed) was −2.366% and the “YFP fluorescence quenching using CNL001 (percent quench)” value (10 nM CNL001, second column so headed) was −1.272%. The “YFP fluorescence quenching using TC-5619/Bradanicline (percent quench)” value (10 nM brd (TC-5619/Bradanicline)) was 0.38%, the “YFP fluorescence quenching using TC-5619/Bradanicline (percent quench)” value (30 nM brd (TC-5619/Bradanicline)) was −8.96% and the “YFP fluorescence quenching using CNL001 (percent quench)” value (50 nM CNL001, first column so headed) was 2.763%. The “YFP fluorescence quenching using CNL001 (percent quench)” value (50 nM CNL001, second column so headed) was 1.995%, the “YFP fluorescence quenching using ABT-126 (percent quench)” value (50 nM abt (ABT-126)) was −1.81% and the “YFP fluorescence quenching using CNL001 (percent quench)” value (100 nM CNL001, first column so headed) was 3.091%. For the same molecule, the “YFP fluorescence quenching using CNL001 (percent quench)” value (100 nM CNL001, second column so headed) was 1.45%, the “YFP fluorescence quenching (percent quench)” value (100 nM CNL002) was −10.03% and the “YFP fluorescence quenching using ABT-126 (percent quench)” value (100 nM abt (ABT-126)) was −2.61%. For the same molecule, the “YFP fluorescence quenching using AZD-0328 (percent quench)” value (100 nM azd0328) was 12.15%, the “YFP fluorescence quenching using TC-5619/Bradanicline (percent quench)” value (100 nM brd (TC-5619/Bradanicline)) was 12.18% and the “YFP fluorescence quenching using ABT-126 (percent quench)” value (300 nM abt (ABT-126)) was −3.78%. The “YFP fluorescence quenching using AZD-0328 (percent quench)” value (300 nM azd0328) was 30.92%, the “YFP fluorescence quenching using TC-5619/Bradanicline (percent quench)” value (300 nM brd (TC-5619/Bradanicline)) was −0.3% and the “YFP fluorescence quenching using CNL001 (percent quench)” value (1 uM CNL001, first column so headed) was 7.331%. For the same molecule, the “YFP fluorescence quenching using CNL001 (percent quench)” value (1 uM CNL001, second column so headed) was 9.103%, the “YFP fluorescence quenching (percent quench)” value (1 uM CNL002) was −3.33% and the “YFP fluorescence quenching using ABT-126 (percent quench)” value (1 uM abt (ABT-126)) was −2.6%. The “YFP fluorescence quenching using TC-5619/Bradanicline (percent quench)” value (1 uM brd (TC-5619/Bradanicline)) was 45.47%, the “YFP fluorescence quenching (percent quench)” value (10 uM ach (acetylcholine)) was 9.47% and the “YFP fluorescence quenching (percent quench)” value (30 uM CNL002) was 6.96%. For the same molecule, the “YFP fluorescence quenching using AZD-0328 (percent quench)” value (30 uM azd0328) was 68.65%, the “YFP fluorescence quenching (percent quench)” value (100 uM ach (acetylcholine)) was 6.12% and the “YFP fluorescence quenching (percent quench)” value (1 mM ach (acetylcholine)) was −1.56%. The “YFP fluorescence quenching (percent quench)” value (3 mM ach (acetylcholine)) was 17.57%, the “YFP fluorescence quenching using Facinicline, 30 nM fac” value (ligand Facinicline 30 nM) was 41.32 and the “YFP fluorescence quenching using Facinicline, 100 nM fac” value (ligand Facinicline 100 nM) was 59.51. The “YFP fluorescence quenching using Facinicline, 300 nM fac” value (ligand Facinicline 300 nM) was 74.86, the “YFP fluorescence quenching using Facinicline, 10 uM fac” value (ligand Facinicline 10 uM) was 78.53 and the “YFP fluorescence quenching using Facinicline, 30 uM fac” value (ligand Facinicline 30 uM) was 84.45. For the same molecule, the “YFP fluorescence quenching using TC-6987, 1 uM tc6987” value (ligand TC-6987 1 uM) was 38.83, the “YFP fluorescence quenching using TC-6987, 10 uM tc6987” value (ligand TC-6987 10 uM) was 31.59 and the “YFP fluorescence quenching using TC-6987, 500 uM tc6987” value (ligand TC-6987 500 uM) was 29.83.

Reference: patent publication US20250152742A1, “COMPOSITIONS AND METHODS FOR NEUROLOGICAL DISEASES” (Trames Bio, Inc., priority 2022, published 2025)
